One may read the Kd as a measure of binding affinity in units of concentration.

Among the targets are ANT 80; ANT 98; ANT 99.
Experiment in all cases: BLI; avid
(In BLI a coated tip is dipped into the sample, and binding shifts an interference pattern.)

B1: FZD5 (receptor)
chain: ASKAPVCQEITVPMCRGIGYNLTHMPNQFNHDTQDEAGLEVHQFWPLVEIQCSPDLRFFLCSMYTPICLPDYHKPLPPCRSVCERAKAGCSPLMRQYGFAWPERMSCDRLPVLGRDAEVLCMDYNRSEATTAPPRPFPAKP
Take B1: the Kd in the assay with ANT 80 turned out to be 50 pM; with ANT 98, 2000 pM; in the assay with ANT 99 it was 400 pM.

The values are drawn from patent US20260250398A1 (published 2026).
